Laboratory results from publication PMC6813122, “Characterization of a highly stable α-galactosidase from thermophilic Rasamsonia emersonii heterologously expressed in a modified Pichia pastoris expression system” (Microbial Cell Factories, 2019).

Key:
[1] = target: ReGal2, GH27 α-galactosidase from Rasamsonia emersonii (Rasamsonia emersonii); experiment: SEC; gel filtration of purified ReGal2, Superdex 200 Increase 10/300 GL, 10 mM Tris-HCl pH 8.0 plus 100 mM NaCl, calibrated with molecular weight standards; self-association, oligomeric state of the native enzyme
purified protein = substrate: O=[N+]([O-])c1ccc(O[C@H]2O[C@H](CO)[C@H](O)[C@H](O)[C@H]2O)cc1; experiment: purified protein; conditions: 80 °C, 20 mM HAc-NaAc buffer pH 4.8 (general assay buffer), 0.25-2.0 mM pNPGal

“ReGal2, GH27 α-galactosidase from Rasamsonia emersonii (enzyme)” showed a stoichiometry N [1] of 6.

B1: ReGal2 (Rasamsonia emersonii CBS 393.64) (protein)
chain: LDNGLAITPQMGWNTWNSFGCSLNETVILDAAEKLVSLGFKDLGYEYVVLDDCWSAGRNASGYLVPDPAKFPNGIDGLAEKIHALGLKIGIYSSAGTMTCARYAGSLGYEEKDAALWASWGIDYLKYDNCYNQGQEGTPKLSYDRYNAMGQALNKTGRPILYSLCNWGVDGPWNFASTIANSWRTSGDLLNTWDRDDANCPCSELEGLDCKTPGYKCSILNVINKAVYYPSKAFPGAWNDLDMLQVGNGGLTDDEAVAHMSLWAAFKSPLLMTNVLSNIDPPTLSILQNPAVLAVSQDPVGSSVNRIWRYYVDDVDANGYGEIQLFSGGLAGGDQLVLLLNAGSKDRTMNATLEDIFWEDGPGGTASQVQQSWDVYDLWANRMSNETAAAIINAANSTGSAAPAAPINMTALGGAKHVYSQVPPSDSKALMGTKVGSVQPSGTVKAFVKAHGVAMLRLRQQSQKKDEL
For B1, the Km (purified protein) was 190 ± 40 µM, the kcat (purified protein) was 623 s⁻¹ and the kcat/Km (purified protein) was 3.28e+06 M⁻¹ s⁻¹.
